The source of these data is patent US20240115668A1 (KOLON TISSUEGENE, published 2024).

For this assay, the target named is Recombinant human PTEN protein (human, UniProt P60483 1-403 (dog entry), limits assumed). Kind of assay: cell-based or functional assay.
Chain of Recombinant human PTEN protein (P60483 whole entry): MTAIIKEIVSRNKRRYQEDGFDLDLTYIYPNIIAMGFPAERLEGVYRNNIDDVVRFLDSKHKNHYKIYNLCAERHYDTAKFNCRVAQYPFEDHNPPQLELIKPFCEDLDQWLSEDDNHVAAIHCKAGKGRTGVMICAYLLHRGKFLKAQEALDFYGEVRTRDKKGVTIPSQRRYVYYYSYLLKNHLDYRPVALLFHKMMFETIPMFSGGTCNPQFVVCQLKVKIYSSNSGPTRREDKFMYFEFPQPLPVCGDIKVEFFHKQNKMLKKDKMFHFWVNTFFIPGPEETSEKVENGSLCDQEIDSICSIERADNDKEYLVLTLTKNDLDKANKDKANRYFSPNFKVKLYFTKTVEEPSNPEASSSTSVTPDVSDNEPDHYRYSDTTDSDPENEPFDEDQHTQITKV

On to RRRRRRRRHYRYVDTTDVDPENEPFDEDQHTQITKV (C-terminal amide) [TGN-3 peptide], for which the “IC50, in vitro PTEN activity assay (lipid phosphatase, C8-PIP3 liposomes, Malachite Green)” value turned out to be 87.1 µM and the “PTEN activity remaining with 10 µM peptide, compared with positive control (in vitro PTEN activity assay)” value amounted to 86%.

B1: TGN-2 peptide (peptide)
peptide: RRRRRRRRHYRYSDTTDSDPENEPFDEDQHTQITKV
modifications: two phosphorylated Serine residues (pS; PTEN Ser380 and Ser385 = peptide positions 13 and 18); C-terminal amide
As for B1, the “PTEN activity remaining with 10 µM peptide, compared with positive control (in vitro PTEN activity assay)” value was found to be 31%.

B2: TGN-1 peptide (peptide)
peptide: RRRRRRRRVTPDVSDNEPDHYRYSDTTDSDPE
modifications: three phosphorylated Serine residues (pS; PTEN Ser370, Ser380 and Ser385 = peptide positions 14, 24 and 29); C-terminal amide
Regarding B2, the “PTEN activity remaining with 10 µM peptide, compared with positive control (in vitro PTEN activity assay)” value turned out to be 54%.
